Data taken from publication PMC3016346.

Experiments:
Assay in all cases: two-hybrid; Matchmaker Gal4 system 3 in AH109; beta-galactosidase solution assay with ONPG on lysed cells from liquid culture; activity as percent of p53-TAg (100%); mean of at least three experiments
[1] = target: SeMV MP NΔ49 deletion mutant, Gal4 DNA-binding domain fusion (pGBKT7 NΔ49) (Sesbania mosaic virus)
[2] = target: Sesbania mosaic virus movement protein, Gal4 DNA-binding domain fusion (pGBK T7 MP) (Sesbania mosaic virus)
[3] = target: SeMV MP CΔ38 deletion mutant, Gal4 DNA-binding domain fusion (pGBK T7) (Sesbania mosaic virus)

In the case of “Sesbania mosaic virus 10-kDa protein (P10), Gal4 activation domain fusion (pGAD T7 P10) (natural protein)”, the beta-galactosidase activity, percent of p53-TAg [1] was 14% and the beta-galactosidase activity, percent of p53-TAg [2] was 97.1%.
In the case of “Sesbania mosaic virus coat protein (CP), Gal4 activation domain fusion (pGAD T7 CP) (natural protein)”, the beta-galactosidase activity, percent of p53-TAg [2] was 70%.
With “Sesbania mosaic virus viral protein genome linked (VPg), Gal4 activation domain fusion (pGAD T7 VPg) (natural protein)” the beta-galactosidase activity, percent of p53-TAg [3] was 83.1% and the beta-galactosidase activity, percent of p53-TAg [2] was 95.5%.
